Measurements as given in IntAct's records for PubMed 29892012.

B1: Coiled-coil alpha-helical rod protein 1 (Homo sapiens), Q8TD31 (parent)
chain: MFPPSGSTGLIPPSHFQARPLSTLPRMAPTWLSDIPLVQPPGHQDVSERRLDTQRPQVTMWERDVSSDRQEPGRRGRSWGLEGSQALSQQAEVIVRQLQELRRLEEEVRLLRETSLQQKMRLEAQAMELEALARAEKAGRAEAEGLRAALAGAEVVRKNLEEGSQRELEEVQRLHQEQLSSLTQAHEEALSSLTSKAEGLEKSLSSLETRRAGEAKELAEAQREAELLRKQLSKTQEDLEAQVTLVENLRKYVGEQVPSEVHSQTWELERQKLLETMQHLQEDRDSLHATAELLQVRVQSLTHILALQEEELTRKVQPSDSLEPEFTRKCQSLLNRWREKVFALMVQLKAQELEHSDSVKQLKGQVASLQEKVTSQSQEQAILQRSLQDKAAEVEVERMGAKGLQLELSRAQEARRRWQQQTASAEEQLRLVVNAVSSSQIWLETTMAKVEGAAAQLPSLNNRLSYAVRKVHTIRGLIARKLALAQLRQESCPLPPPVTDVSLELQQLREERNRLDAELQLSARLIQQEVGRAREQGEAERQQLSKVAQQLEQELQQTQESLASLGLQLEVARQGQQESTEEAASLRQELTQQQELYGQALQEKVAEVETRLREQLSDTERRLNEARREHAKAVVSLRQIQRRAAQEKERSQELRRLQEEARKEEGQRLARRLQELERDKNLMLATLQQEGLLSRYKQQRLLTVLPSLLDKKKSVVSSPRPPECSASAPVAAAVPTRESIKGSLSVLLDDLQDLSEAISKEEAVCQGDNLDRCSSSNPQMSS
partner: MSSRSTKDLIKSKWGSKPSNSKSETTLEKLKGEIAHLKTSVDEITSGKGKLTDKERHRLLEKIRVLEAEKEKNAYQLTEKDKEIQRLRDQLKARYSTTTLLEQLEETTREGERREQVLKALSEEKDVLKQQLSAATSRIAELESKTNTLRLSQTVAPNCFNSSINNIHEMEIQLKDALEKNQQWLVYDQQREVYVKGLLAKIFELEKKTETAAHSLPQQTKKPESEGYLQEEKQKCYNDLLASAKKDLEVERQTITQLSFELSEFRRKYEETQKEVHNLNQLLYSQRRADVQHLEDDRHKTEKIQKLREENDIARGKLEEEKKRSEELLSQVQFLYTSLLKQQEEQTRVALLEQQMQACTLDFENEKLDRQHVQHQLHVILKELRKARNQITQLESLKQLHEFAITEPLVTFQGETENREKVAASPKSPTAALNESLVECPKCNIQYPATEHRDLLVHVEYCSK
B2: Coiled-coil alpha-helical rod protein 1 (Homo sapiens), Q8TD31 (parent)
chain: B1 chain
partner: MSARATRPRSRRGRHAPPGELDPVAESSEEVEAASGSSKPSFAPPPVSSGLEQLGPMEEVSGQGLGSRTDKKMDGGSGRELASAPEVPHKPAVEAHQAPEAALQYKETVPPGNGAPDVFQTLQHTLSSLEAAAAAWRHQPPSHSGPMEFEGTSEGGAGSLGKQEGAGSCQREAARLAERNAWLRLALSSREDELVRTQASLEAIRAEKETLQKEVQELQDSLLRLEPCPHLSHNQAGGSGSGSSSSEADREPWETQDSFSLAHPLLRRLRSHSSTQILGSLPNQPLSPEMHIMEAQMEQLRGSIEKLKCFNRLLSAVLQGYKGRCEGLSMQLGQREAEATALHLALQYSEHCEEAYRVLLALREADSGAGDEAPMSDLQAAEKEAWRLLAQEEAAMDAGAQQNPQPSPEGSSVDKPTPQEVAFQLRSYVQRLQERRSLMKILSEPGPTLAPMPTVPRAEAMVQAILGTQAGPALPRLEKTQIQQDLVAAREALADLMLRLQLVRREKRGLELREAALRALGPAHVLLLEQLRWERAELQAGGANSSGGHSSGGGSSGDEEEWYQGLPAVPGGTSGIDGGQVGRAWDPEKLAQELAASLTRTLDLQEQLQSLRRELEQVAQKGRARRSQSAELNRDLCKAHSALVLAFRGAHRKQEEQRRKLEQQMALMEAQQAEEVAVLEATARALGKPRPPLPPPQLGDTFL
B3: Coiled-coil alpha-helical rod protein 1 (Homo sapiens), Q8TD31 (parent)
chain: B1 chain
partner: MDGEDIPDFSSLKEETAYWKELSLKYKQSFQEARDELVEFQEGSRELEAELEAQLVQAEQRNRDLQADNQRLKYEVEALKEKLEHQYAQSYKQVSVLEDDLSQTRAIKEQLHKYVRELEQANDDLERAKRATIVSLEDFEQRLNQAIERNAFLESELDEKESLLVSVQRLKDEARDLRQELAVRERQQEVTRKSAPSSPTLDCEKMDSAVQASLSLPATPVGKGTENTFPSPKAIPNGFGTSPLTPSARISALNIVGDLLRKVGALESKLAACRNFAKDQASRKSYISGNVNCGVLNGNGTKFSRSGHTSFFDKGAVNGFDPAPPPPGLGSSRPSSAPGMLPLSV
B4: Coiled-coil alpha-helical rod protein 1 (Homo sapiens), Q8TD31 (parent)
chain: B1 chain
partner: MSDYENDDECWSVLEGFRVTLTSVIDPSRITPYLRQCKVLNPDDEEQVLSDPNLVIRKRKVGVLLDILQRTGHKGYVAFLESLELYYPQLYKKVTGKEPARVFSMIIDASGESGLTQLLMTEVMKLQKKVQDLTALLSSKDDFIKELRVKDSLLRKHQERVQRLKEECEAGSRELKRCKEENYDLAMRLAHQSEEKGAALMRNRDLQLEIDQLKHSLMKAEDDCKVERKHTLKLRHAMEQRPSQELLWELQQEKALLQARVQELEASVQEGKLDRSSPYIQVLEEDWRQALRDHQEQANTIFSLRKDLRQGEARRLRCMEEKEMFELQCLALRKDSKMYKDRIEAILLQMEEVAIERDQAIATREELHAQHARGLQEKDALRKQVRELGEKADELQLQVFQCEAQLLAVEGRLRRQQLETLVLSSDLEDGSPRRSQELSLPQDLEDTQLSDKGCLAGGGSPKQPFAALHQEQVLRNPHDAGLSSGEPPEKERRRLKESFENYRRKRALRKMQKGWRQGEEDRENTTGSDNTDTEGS
B5: Coiled-coil alpha-helical rod protein 1 (Homo sapiens), Q8TD31 (parent)
chain: B1 chain
partner: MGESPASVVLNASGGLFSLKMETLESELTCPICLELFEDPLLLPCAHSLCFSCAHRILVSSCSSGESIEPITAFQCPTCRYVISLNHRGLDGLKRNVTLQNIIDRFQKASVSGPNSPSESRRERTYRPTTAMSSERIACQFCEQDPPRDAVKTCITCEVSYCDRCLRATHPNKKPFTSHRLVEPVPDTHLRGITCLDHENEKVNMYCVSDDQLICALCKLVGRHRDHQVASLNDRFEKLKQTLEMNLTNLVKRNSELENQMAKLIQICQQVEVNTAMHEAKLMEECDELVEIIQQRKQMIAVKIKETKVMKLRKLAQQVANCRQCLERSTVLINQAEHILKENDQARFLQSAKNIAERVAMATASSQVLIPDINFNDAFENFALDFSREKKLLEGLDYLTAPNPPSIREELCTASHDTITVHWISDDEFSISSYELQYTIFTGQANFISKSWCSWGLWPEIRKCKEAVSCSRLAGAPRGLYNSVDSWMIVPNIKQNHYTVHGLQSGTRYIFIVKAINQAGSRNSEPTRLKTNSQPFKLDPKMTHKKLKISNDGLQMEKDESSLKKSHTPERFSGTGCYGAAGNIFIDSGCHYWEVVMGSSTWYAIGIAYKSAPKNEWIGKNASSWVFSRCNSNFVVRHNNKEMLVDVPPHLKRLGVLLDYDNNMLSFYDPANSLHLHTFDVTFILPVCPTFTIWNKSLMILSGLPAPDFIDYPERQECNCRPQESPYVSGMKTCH
B6: Coiled-coil alpha-helical rod protein 1 (Homo sapiens), Q8TD31 (parent)
chain: B1 chain
partner: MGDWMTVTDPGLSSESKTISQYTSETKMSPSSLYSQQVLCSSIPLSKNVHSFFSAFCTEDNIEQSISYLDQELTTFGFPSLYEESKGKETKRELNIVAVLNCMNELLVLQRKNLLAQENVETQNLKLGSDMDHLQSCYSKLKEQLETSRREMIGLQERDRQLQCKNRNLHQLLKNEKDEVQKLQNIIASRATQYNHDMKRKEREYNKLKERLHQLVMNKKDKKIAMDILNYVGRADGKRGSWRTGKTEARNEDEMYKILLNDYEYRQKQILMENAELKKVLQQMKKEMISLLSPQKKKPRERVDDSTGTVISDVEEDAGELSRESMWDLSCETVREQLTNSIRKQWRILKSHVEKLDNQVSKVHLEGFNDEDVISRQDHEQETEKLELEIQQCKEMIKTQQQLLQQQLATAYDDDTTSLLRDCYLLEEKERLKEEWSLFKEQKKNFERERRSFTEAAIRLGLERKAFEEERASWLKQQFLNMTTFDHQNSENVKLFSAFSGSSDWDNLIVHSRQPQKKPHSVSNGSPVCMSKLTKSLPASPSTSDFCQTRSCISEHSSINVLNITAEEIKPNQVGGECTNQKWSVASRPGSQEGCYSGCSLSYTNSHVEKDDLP
B7: Coiled-coil alpha-helical rod protein 1 (Homo sapiens), Q8TD31 (parent)
chain: B1 chain
partner: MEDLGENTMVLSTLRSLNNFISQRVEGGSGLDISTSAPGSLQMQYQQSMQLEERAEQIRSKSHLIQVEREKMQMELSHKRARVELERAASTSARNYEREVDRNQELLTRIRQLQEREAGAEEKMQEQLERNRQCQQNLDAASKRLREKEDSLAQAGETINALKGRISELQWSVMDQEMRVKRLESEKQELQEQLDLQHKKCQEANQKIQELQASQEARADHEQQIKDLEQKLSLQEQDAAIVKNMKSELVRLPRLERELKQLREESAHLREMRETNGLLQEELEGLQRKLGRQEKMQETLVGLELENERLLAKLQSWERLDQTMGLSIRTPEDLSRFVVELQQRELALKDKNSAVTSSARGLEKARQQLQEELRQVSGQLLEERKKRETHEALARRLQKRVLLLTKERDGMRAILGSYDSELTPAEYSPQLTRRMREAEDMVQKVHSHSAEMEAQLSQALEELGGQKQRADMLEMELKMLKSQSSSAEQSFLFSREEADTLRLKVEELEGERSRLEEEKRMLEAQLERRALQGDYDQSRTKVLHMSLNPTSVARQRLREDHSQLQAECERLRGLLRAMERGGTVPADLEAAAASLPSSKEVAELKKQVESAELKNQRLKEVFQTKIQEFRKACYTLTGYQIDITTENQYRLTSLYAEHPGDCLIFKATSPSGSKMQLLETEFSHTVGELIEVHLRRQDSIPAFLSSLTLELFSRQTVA
B8: Coiled-coil alpha-helical rod protein 1 (Homo sapiens), Q8TD31 (parent)
chain: B1 chain
partner: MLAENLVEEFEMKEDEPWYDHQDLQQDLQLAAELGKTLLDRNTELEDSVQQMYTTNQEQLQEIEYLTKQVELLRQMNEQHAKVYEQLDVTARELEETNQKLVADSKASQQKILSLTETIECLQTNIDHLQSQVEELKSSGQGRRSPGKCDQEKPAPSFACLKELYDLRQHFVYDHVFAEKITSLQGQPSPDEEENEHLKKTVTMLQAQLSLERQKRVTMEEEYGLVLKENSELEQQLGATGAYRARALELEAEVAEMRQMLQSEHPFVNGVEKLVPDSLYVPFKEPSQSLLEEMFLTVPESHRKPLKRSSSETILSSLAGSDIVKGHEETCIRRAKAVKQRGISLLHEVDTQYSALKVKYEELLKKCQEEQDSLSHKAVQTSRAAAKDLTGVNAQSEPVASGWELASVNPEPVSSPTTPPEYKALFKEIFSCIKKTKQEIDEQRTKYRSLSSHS
B9: Coiled-coil alpha-helical rod protein 1 (Homo sapiens), Q8TD31 (parent)
chain: B1 chain
partner: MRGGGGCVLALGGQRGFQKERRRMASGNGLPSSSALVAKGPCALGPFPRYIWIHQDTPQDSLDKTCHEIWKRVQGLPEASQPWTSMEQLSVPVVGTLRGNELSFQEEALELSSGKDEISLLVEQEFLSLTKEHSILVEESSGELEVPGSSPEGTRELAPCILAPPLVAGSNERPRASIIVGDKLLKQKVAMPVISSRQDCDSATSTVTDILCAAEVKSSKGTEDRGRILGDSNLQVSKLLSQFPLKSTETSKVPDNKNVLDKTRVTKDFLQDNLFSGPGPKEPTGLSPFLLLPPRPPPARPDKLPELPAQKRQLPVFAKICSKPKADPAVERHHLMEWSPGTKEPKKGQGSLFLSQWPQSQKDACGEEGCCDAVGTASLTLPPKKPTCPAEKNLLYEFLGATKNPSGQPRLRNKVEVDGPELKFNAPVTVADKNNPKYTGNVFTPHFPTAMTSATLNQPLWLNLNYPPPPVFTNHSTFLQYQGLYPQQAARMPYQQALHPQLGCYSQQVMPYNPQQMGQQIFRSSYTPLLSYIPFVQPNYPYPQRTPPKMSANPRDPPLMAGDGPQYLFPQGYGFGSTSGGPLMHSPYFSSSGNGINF

Variants of: B1
Settings: with cep55_human CEP55, Q53EZ4

Variant	effect of a mutation on the interaction
W337R	disrupting interaction strength

Variants of: B2
Settings: with usbp1_human USHBP1, Q8N6Y0

Variant	effect of a mutation on the interaction
W337R	disrupting interaction strength

Variants of: B3
Settings: with ndel1_human NDEL1, Q9GZM8

Variant	effect of a mutation on the interaction
W337R	disrupting interaction strength

Variants of: B4
Settings: with card9_human CARD9, Q9H257

Variant	effect of a mutation on the interaction
W337R	disrupting interaction strength

Variants of: B5
Settings: with trim1_human MID2, Q9UJV3

Variant	effect of a mutation on the interaction
W337R	disrupting interaction strength

Variants of: B6
Settings: with adip_human SSX2IP

Variant	effect of a mutation on the interaction
W337R	disrupting interaction strength

Variants of: B7
Settings: with md1l1_human MAD1L1, Q9Y6D9

Variant	effect of a mutation on the interaction
W337R	disrupting interaction strength

Variants of: B8
Settings: with cdr2_human CDR2, Q01850

Variant	effect of a mutation on the interaction
W337R	disrupting interaction strength

Variants of: B9
Settings: with ca094_human C1orf94, Q6P1W5

Variant	effect of a mutation on the interaction
W337R	disrupting interaction strength
